# Test results from patent publication US20240117018A1.
# Columns and labels:
# Assay in all cases: cell-based or functional assay
# [1] = biological target: MuLV envelope (negative control pseudovirus) (MuLV)
# [2] = biological target: HIV-1 Env pseudovirus CNE17 (HIV-1)
# [3] = biological target: HIV-1 Env pseudovirus ZM233M.PB6 (HIV-1)
# [4] = biological target: HIV-1 Env pseudovirus CNE58 (HIV-1)
# [5] = biological target: HIV-1 Env pseudovirus HIV-16845-2.22 (HIV-1)
# [6] = biological target: HIV-1 Env pseudovirus RHPA4259.7 (HIV-1)
# [7] = biological target: HIV-1 Env pseudovirus 1006_11_C3_1601 (HIV-1)
# [8] = biological target: HIV-1 Env pseudovirus CAAN5342.A2 (HIV-1)
# [9] = biological target: HIV-1 Env pseudovirus Q259.d2.17 (HIV-1)
# [10] = biological target: HIV-1 Env pseudovirus ZM249M.PL1 (HIV-1)
# [11] = biological target: HIV-1 Env pseudovirus 246F C1G (HIV-1)
# [12] = biological target: HIV-1 Env pseudovirus HIV-16055-2.3 (HIV-1)
# [13] = biological target: HIV-1 Env pseudovirus ZM53M.PB12 (HIV-1)
# [14] = biological target: HIV-1 Env pseudovirus CNE21 (HIV-1)
# [15] = biological target: HIV-1 Env pseudovirus PVO.4 (HIV-1)
# [16] = biological target: HIV-1 Env pseudovirus Ce1176_A3 (HIV-1)
# [17] = biological target: HIV-1 Env pseudovirus 6480.v4.c25 (HIV-1)
# [18] = biological target: HIV-1 Env pseudovirus T255-34 (HIV-1)
# [19] = biological target: HIV-1 Env pseudovirus 620345.c01 (HIV-1)
# [20] = biological target: HIV-1 Env pseudovirus P0402_c2_11 (HIV-1)
# [21] = biological target: HIV-1 Env pseudovirus R2184.c04 (HIV-1)
# [22] = biological target: HIV-1 Env pseudovirus 231965.c01 (HIV-1)
# [23] = biological target: HIV-1 Env pseudovirus C1080.c03 (HIV-1)
substance,measurement,setting,value
N49P7 (antibody),"IC50 (neutralisation, TZM.bl cells)",[1],> 50 µg/mL
same,"IC80 (neutralisation, TZM.bl cells)",[1],> 50 µg/mL
same,MPI,[1],9
N49P7.1 (antibody),"IC50 (neutralisation, TZM.bl cells)",[1],> 50 µg/mL
same,"IC80 (neutralisation, TZM.bl cells)",[1],> 50 µg/mL
same,MPI,[1],4
N49P7.2 (antibody),IC50,[2],0.376 µg/mL
same,IC80,[2],1.24 µg/mL
same,MPI,[2],100
same,IC50,[3],0.475 µg/mL
same,IC80,[3],2.14 µg/mL
same,MPI,[3],99
same,IC50,[4],0.045 µg/mL
same,IC80,[4],0.129 µg/mL
same,MPI,[4],100
same,IC50,[5],3.91 µg/mL
same,IC80,[5],18.2 µg/mL
same,MPI,[5],98
same,IC50,[6],0.1 µg/mL
same,IC80,[6],0.289 µg/mL
same,MPI,[6],100
same,IC50,[7],0.085 µg/mL
same,IC80,[7],0.237 µg/mL
same,MPI,[7],100
same,IC50,[8],0.809 µg/mL
same,IC80,[8],2.81 µg/mL
same,MPI,[8],100
same,IC50,[9],38.5 µg/mL
same,IC80,[9],> 50 µg/mL
same,MPI,[9],54
same,IC50,[10],0.073 µg/mL
same,IC80,[10],0.256 µg/mL
same,MPI,[10],100
same,IC50,[11],0.049 µg/mL
same,IC80,[11],0.192 µg/mL
same,MPI,[11],100
same,IC50,[12],0.204 µg/mL
same,IC80,[12],0.721 µg/mL
same,MPI,[12],100
same,IC50,[13],0.477 µg/mL
same,IC80,[13],1.73 µg/mL
same,MPI,[13],100
same,IC50,[14],48.3 µg/mL
same,IC80,[14],> 50 µg/mL
same,MPI,[14],51
same,IC50,[15],0.237 µg/mL
same,IC80,[15],0.831 µg/mL
same,MPI,[15],100
same,IC50,[16],0.332 µg/mL
same,IC80,[16],1.08 µg/mL
same,MPI,[16],100
N49P11 (antibody),IC50,[2],6.68 µg/mL
same,IC80,[2],25.6 µg/mL
same,MPI,[2],100
same,IC50,[3],5.92 µg/mL
same,IC80,[3],18.5 µg/mL
same,MPI,[3],100
same,IC50,[4],0.038 µg/mL
same,IC80,[4],0.135 µg/mL
same,MPI,[4],100
same,IC50,[5],1.72 µg/mL
same,IC80,[5],8.15 µg/mL
same,MPI,[5],100
same,IC50,[6],0.202 µg/mL
same,IC80,[6],0.956 µg/mL
same,MPI,[6],100
same,IC50,[7],0.125 µg/mL
same,IC80,[7],0.487 µg/mL
same,MPI,[7],100
same,IC50,[8],9.03 µg/mL
same,IC80,[8],20.8 µg/mL
same,MPI,[8],100
same,IC50,[9],8.42 µg/mL
same,IC80,[9],21.4 µg/mL
same,MPI,[9],100
same,IC50,[10],3.64 µg/mL
same,IC80,[10],17.4 µg/mL
same,MPI,[10],100
same,IC50,[11],8.48 µg/mL
same,IC80,[11],20.9 µg/mL
same,MPI,[11],100
same,IC50,[12],0.091 µg/mL
same,IC80,[12],0.503 µg/mL
same,MPI,[12],100
same,IC50,[13],1.05 µg/mL
same,IC80,[13],6.53 µg/mL
same,MPI,[13],100
same,IC50,[14],7.4 µg/mL
same,IC80,[14],21.9 µg/mL
same,MPI,[14],100
same,IC50,[15],0.248 µg/mL
same,IC80,[15],1.17 µg/mL
same,MPI,[15],100
same,IC50,[16],0.946 µg/mL
same,IC80,[16],6.05 µg/mL
same,MPI,[16],100
N49P18.1 (antibody),IC50,[2],39.7 µg/mL
same,IC80,[2],> 50 µg/mL
same,MPI,[2],56
same,IC50,[3],38.4 µg/mL
same,IC80,[3],> 50 µg/mL
same,MPI,[3],57
same,IC50,[4],1.92 µg/mL
same,IC80,[4],5.26 µg/mL
same,MPI,[4],100
same,IC50,[5],> 50 µg/mL
same,IC80,[5],> 50 µg/mL
same,MPI,[5],23
same,IC50,[6],4.34 µg/mL
same,IC80,[6],21.4 µg/mL
same,MPI,[6],98
same,IC50,[7],2.8 µg/mL
same,IC80,[7],9.66 µg/mL
same,MPI,[7],99
same,IC50,[8],16.1 µg/mL
same,IC80,[8],49.1 µg/mL
same,MPI,[8],83
same,IC50,[9],> 50 µg/mL
same,IC80,[9],> 50 µg/mL
same,MPI,[9],37
same,IC50,[10],4.16 µg/mL
same,IC80,[10],19.8 µg/mL
same,MPI,[10],98
same,IC50,[11],3.4 µg/mL
same,IC80,[11],20.2 µg/mL
same,MPI,[11],97
same,IC50,[12],8.04 µg/mL
same,IC80,[12],22.6 µg/mL
same,MPI,[12],97
same,IC50,[13],1.3 µg/mL
same,IC80,[13],4.51 µg/mL
same,MPI,[13],99
same,IC50,[14],7.93 µg/mL
same,IC80,[14],29.2 µg/mL
same,MPI,[14],95
same,IC50,[15],9.65 µg/mL
same,IC80,[15],40.2 µg/mL
same,MPI,[15],84
same,IC50,[16],32.5 µg/mL
same,IC80,[16],> 50 µg/mL
same,MPI,[16],61
VRC01 (antibody),IC50 (Titer in TZM.bl cells),[17],0.04 µg/mL
same,IC80 (Titer in TZM.bl cells),[17],0.09 µg/mL
same,IC50 (Titer in TZM.bl cells),[18],0.7 µg/mL
same,IC80 (Titer in TZM.bl cells),[18],2.7 µg/mL
same,IC50 (Titer in TZM.bl cells),[3],2 µg/mL
same,IC80 (Titer in TZM.bl cells),[3],9.3 µg/mL
same,IC50 (Titer in TZM.bl cells),[19],> 50 µg/mL
same,IC80 (Titer in TZM.bl cells),[19],> 50 µg/mL
same,IC50 (Titer in TZM.bl cells),[20],0.21 µg/mL
same,IC80 (Titer in TZM.bl cells),[20],0.59 µg/mL
same,IC50 (Titer in TZM.bl cells),[5],2.8 µg/mL
same,IC80 (Titer in TZM.bl cells),[5],12.7 µg/mL
same,IC50 (Titer in TZM.bl cells),[6],0.06 µg/mL
same,IC80 (Titer in TZM.bl cells),[6],0.185 µg/mL
same,IC50 (Titer in TZM.bl cells),[7],0.15 µg/mL
same,IC80 (Titer in TZM.bl cells),[7],0.39 µg/mL
same,IC50 (Titer in TZM.bl cells),[8],0.82 µg/mL
same,IC80 (Titer in TZM.bl cells),[8],2.8 µg/mL
same,IC50 (Titer in TZM.bl cells),[9],0.17 µg/mL
same,IC80 (Titer in TZM.bl cells),[9],0.54 µg/mL
same,IC50 (Titer in TZM.bl cells),[10],0.05 µg/mL
same,IC80 (Titer in TZM.bl cells),[10],0.23 µg/mL
same,IC50 (Titer in TZM.bl cells),[11],> 10 µg/mL
same,IC80 (Titer in TZM.bl cells),[11],> 10 µg/mL
same,IC50 (Titer in TZM.bl cells),[21],0.08 µg/mL
same,IC80 (Titer in TZM.bl cells),[21],0.32 µg/mL
same,IC50 (Titer in TZM.bl cells),[12],0.08 µg/mL
same,IC80 (Titer in TZM.bl cells),[12],0.26 µg/mL
same,IC50 (Titer in TZM.bl cells),[22],0.34 µg/mL
same,IC80 (Titer in TZM.bl cells),[22],1.2 µg/mL
same,IC50 (Titer in TZM.bl cells),[13],1.3 µg/mL
same,IC80 (Titer in TZM.bl cells),[13],4 µg/mL
same,IC50 (Titer in TZM.bl cells),[15],0.22 µg/mL
same,IC80 (Titer in TZM.bl cells),[15],1.2 µg/mL
same,IC50 (Titer in TZM.bl cells),[23],3.4 µg/mL
same,IC80 (Titer in TZM.bl cells),[23],14.4 µg/mL
same,IC50 (Titer in TZM.bl cells),[16],2.25 µg/mL
same,IC80 (Titer in TZM.bl cells),[16],8.1 µg/mL
